B1: INTS4 (parent)
chain: IRLVDDAFGKICHMVSDGSWVVRV
B2: CLPTM1 (parent)
chain: MNLHVYISEHEHFTDFNATSALFW
B3: ZNF8 (parent)
chain: RTHTGEKPYTCSVCGKSFSRTTCL

Variants of: B1
Experiment: protein stability index of a GFP-peptide fusion (GPS, HEK-293T) (PSI 1-6); higher = more stable
Conditions: c terminus: a fixed tail appended
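Note: lentivirally expressed fusions sorted by FACS into six bins by GFP to DsRed ratio, PSI derived from sequencing read proportions per bin multiplied by bin number.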

Variant | protein stability index
V15F | 2.51
V15I | 2.87
V15G | 3.51
V15T | 3.2
V15Q | 3.06
V15P | 3.17
V15A | 3.99
V15K | 2.06
V15D | 2.06
V15R | 3.53
V15C | 4.47
V15H | 2.22
V15S | 1.84
V15N | 3.28
V15L | 2.74
W20G | 1.7
W20R | 2.79
W20Q | 3.26
W20I | 2.89
W20Y | 2.87
W20F | 2.47
W20E | 1.64
W20L | 2.83
W20A | 3.43
W20V | 3.08
W20K | 1.36

Variant | protein stability index
W20D | 1.61
W20H | 3.71
H13I | 3.17
H13D | 3.12
H13G | 2.97
H13K | 3.46
H13S | 1.3
H13M | 3.09
H13Y | 2.38
H13P | 2.63
H13A | 3.2
D6T | 3.69
D6L | 1.98
D6Q | 4.08
D6W | 2.88
D6M | 3.24
D6N | 4.84
D6V | 2.35
D6R | 2.21
D6E | 3.96
D6G | 2.84
V21F | 2.62
V21L | 2.25
V21Y | 4.71
V21C | 3.07
V21G | 1.89

Variant | protein stability index
V21T | 2.18
V21P | 1.98
V21R | 2.88
V21K | 3.29
V21E | 2
V21H | 3.08
K10P | 2.29
K10G | 2.29
K10F | 2.4
K10L | 2.96
K10C | 3.27
K10R | 4.19
K10I | 2.57
K10N | 1.78
I1K | 3.49
I1M | 3.29
I1A | 2.67
I1F | 4.01
I1N | 3.6
I1H | 3.54
I1E | 2.77
I1C | 2.39
I1P | 2.78
I1Y | 2.87
I1T | 3.21
I1Q | 3.89

Variant | protein stability index
F8Q | 2.5
F8W | 3.06
F8R | 2.46
F8M | 2.69
F8S | 3.94
F8E | 3.82
F8D | 4.44
F8P | 2.54
F8G | 1.6
F8I | 2.78
F8H | 2.19
F8Y | 2.45
F8K | 2.31
F8C | 2.59
I11Y | 3.31
I11H | 3.47
I11N | 2.3
I11Q | 2.63
I11C | 2.87
I11V | 3.14
I11S | 2.87
I11M | 2.41
S16D | 1.29
S16E | 2.31
S16C | 2.56
S16Q | 2.47

Variant | protein stability index
S16W | 1.91
S16L | 3.17
S16N | 2.52
S16V | 1.29
S16I | 2.59
S16M | 2.25
S16F | 2.14
S16R | 2.56
V24T | 4
V24W | 1.57
V24R | 3.03
V24I | 3.12
V24F | 3.03
V24M | 1.46
V24K | 1.58
V24H | 2.79
V24S | 2.31
V24C | 2.68
V24P | 3.21
V24D | 1.47
V24Q | 2.04
V24N | 1.42
V24Y | 3.37
S19F | 2.73
S19C | 1.73
S19T | 3.28

Variant | protein stability index
S19W | 1.01
S19L | 2.95
S19D | 3.41
S19M | 2.38
S19I | 3.87
S19A | 2.89
S19V | 3.96
S19P | 3.43
S19K | 2.25
S19H | 3.8
S19G | 1.58
S19Q | 3.45
L3H | 2.17
L3E | 3.14
L3A | 3.09
L3W | 1.97
L3R | 2.08
L3F | 2.76
L3V | 3.33
L3I | 3.47
L3C | 1.72
D5A | 2.73
D5R | 1.8
D5P | 2.53
D5K | 3.01
D5C | 3.07

Variant | protein stability index
D5Y | 3.78
D5L | 3.22
D5T | 3.23
D5S | 2.3
D5V | 2.32
D5F | 4.33
D5G | 3.16
D5I | 2.67
M14H | 3.19
M14V | 4.58
M14T | 3.71
M14R | 1.53
M14I | 2.62
M14P | 2.76
M14S | 2.48
M14Q | 1.49
M14Y | 1.64
M14N | 5.13
M14F | 3.85
M14A | 2.75
M14D | 4.2
C12Q | 2.82
C12K | 4.92
C12N | 2.44
C12R | 4.2
C12T | 2.91

Variant | protein stability index
C12H | 2.35
C12A | 3.65
C12G | 5.66
C12F | 1.73
C12W | 3
C12P | 3.97
C12D | 3.58
D17M | 1.92
D17S | 3.98
D17Q | 3.32
D17P | 2.05
D17F | 1.24
D17C | 2.15
D17E | 2.35
D17N | 2.41
D17A | 3.62
D17L | 2.79
D17V | 3.15
D17K | 1.48
D17W | 2.22
D17H | 3.91
D17G | 2.05
D17R | 2.02
A7W | 3.37
A7M | 2.62
A7G | 2.95

Variant | protein stability index
A7K | 2.09
A7F | 2.22
A7S | 4.46
A7D | 2.86
A7L | 3.62
R2A | 3.67
R2F | 4.79
R2V | 4.66
R2M | 2.78
R2S | 2.96
V4I | 3.33
V4T | 1.88
V4F | 2.26
V4M | 4.21
V4R | 1.47
V4C | 2.16
V4S | 2.82
V4N | 1.36
V4A | 3.46
V4P | 2.57
V4K | 3.23
V4L | 4.43
V4Y | 2.46
G18D | 3.61
G18S | 1.88
G18K | 3.25

Variant | protein stability index
G18T | 1.95
G18R | 2.9
G18I | 3.15
G18E | 2.57
G18Y | 1.62
G18P | 4.4
G18F | 2.29
G18M | 1.8
G18N | 2.01
G9V | 2.6
G9P | 3.75
G9K | 1.85
G9Y | 3.11
G9F | 3.37
G9M | 2.96
G9E | 1.14
G9R | 2.17
R23T | 1.88
R23D | 2.15
R23L | 4.2
R23E | 2.13
R23H | 2.94
R23S | 2.39
R23G | 2.32
R23A | 4.14
R23F | 3

Variant | protein stability index
R23N | 2.02
R23M | 3.4
R23C | 3.87
R23I | 3.28
V22D | 3.6
V22L | 2.82
V22Y | 4.15
V22H | 2.78
V22I | 3.27
V22W | 2.35
V22E | 2.56
V22K | 3.02
V22C | 3.31
V22T | 4.7
V22R | 3.28
V22F | 3.53

Variants of: B2
Experiment: as above
Conditions: c terminus: a fixed tail appended

Variant | protein stability index
M1D | 1.72
M1E | 1.33

Variants of: B3
Experiment: as above
Conditions: c terminus: a fixed tail appended

Variant | protein stability index
T22Q | 2.5
T22E | 4.28
T22F | 2.3
T22H | 2.24
T22A | 2.56
T22C | 4.01
T22R | 1.8
T22L | 1.9
T22K | 2.97
T22W | 1.86
T22V | 2.16
T22S | 1.82
T22Y | 1.98
T22G | 2.1
T22M | 1.63
T22P | 2.43
T22D | 2.27
T22N | 2.94
C23Y | 2.57

Variant | protein stability index
C23S | 2.03
C23Q | 2.24
C23L | 1.93
C23H | 2.26
C23V | 1.59
C23D | 2.46
C23P | 2.63
C23F | 2.11
C23G | 2.43
C23T | 2.1
C23W | 1.78
C23K | 2.28
C23E | 3
C23M | 2.19
C23A | 2.21
C23R | 1.84
L24Y | 2.48
L24F | 2.06
L24Q | 2.96

Variant | protein stability index
L24C | 4.72
L24H | 3.46
L24S | 2.06
L24V | 3.06
L24T | 3.08
L24D | 3.21
L24E | 3.28
L24W | 2.8
L24M | 2.87
L24N | 3.03
L24A | 2.56
L24P | 3.17
L24I | 2.8
L24R | 2.73
L24K | 2.76
T21V | 2.36
T21W | 1.72
T21Y | 2.32

Reference: the supplement of paper PMC10567573
